Data taken from patent US20090191198A1 (EBERHARD KARLS UNIVERSITAT TUBINGEN, published 2009).

T1: soluble NKp80 ectodomain (NKp80-ED), biotinylated, used soluble or immobilized on streptavidin-coated … (human, UniProt Q9NZS2 64-231, biotinylated with BirA ligase at the BirA-tag ; Biotinylated by BirA ligase at the N-terminal BirA-tag (tag not in the letters). Used soluble or immobilized on streptavidin-coated microspheres. …)
T1 construct: Expressed in 293T cells from pSecTag2/HygroC; also called sNKp80-ED; imNKp80
T1 sequence: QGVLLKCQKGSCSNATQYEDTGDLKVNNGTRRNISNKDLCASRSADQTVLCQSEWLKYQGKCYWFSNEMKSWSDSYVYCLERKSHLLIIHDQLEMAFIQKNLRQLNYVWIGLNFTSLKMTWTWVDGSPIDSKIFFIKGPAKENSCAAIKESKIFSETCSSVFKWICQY

B1: AICL (Activation-induced C-type Lectin), natural, on myeloid cells (U937, THP-1, monocytes, macrophages, granulocytes) or in their lysates (ligand)
chain: MMTKHKKCFIIVGVLITTNIITLIVKLTRDSQSLCPYDWIGFQNKCYYFSKEEGDWNSSKYNCSTQHADLTIIDNIEETNFLRRYKCSSDHWIGLKMAKNRTGQWVDGATFTKSFGMRGSEGCAYLSDDGAATARCYTERKWICRKRIH
B2: NKp80-ED tetramers (biotinylated NKp80 ectodomain tetramerized with PE- or APC-labelled streptavidin) (receptor, not shown: large carriers; small tags and cut ends)
chain: T1 sequence
modifications: biotinylated with BirA ligase at the BirA-tag ; Biotinylated by BirA ligase at the BirA-tag. Tetramerized on phycoerythrin- or allophycocyanin-labelled streptavidin (four copies per streptavidin, carrier not in the letters).
notes: Same polypeptide as m1, tetramerized on labelled streptavidin before use; also called sNKp80-ED tetramers

How the values were obtained:
[1] = biological target: B2; test: flow cytometry, tetramers on U937 cells
[2] = biological target: T1, soluble NKp80 ectodomain (NKp80-ED), …; test: flow cytometry, NKp80-ED tetramers on microsphere-immobilized NKp80-ED

B1
binding result [1]: binds

B2
binding result [2]: no binding
